The values that follow come from patent US20070225226A1, “C-REACTIVE PROTEIN APHERESIS” (The American National Red Cross, priority 2006, published 2007).

Read-outs that look alike come from different tables or passages of the source. Non-standard residues stand in square brackets, D forms with d. No end group written: not given here. 2Nal = N[C@@H](Cc1ccc2ccccc2c1)C(=O)O

For assay [1], the target named is T1, CRP (Homo sapiens, UniProt P02741).
T1 sequence (P02741 19-224): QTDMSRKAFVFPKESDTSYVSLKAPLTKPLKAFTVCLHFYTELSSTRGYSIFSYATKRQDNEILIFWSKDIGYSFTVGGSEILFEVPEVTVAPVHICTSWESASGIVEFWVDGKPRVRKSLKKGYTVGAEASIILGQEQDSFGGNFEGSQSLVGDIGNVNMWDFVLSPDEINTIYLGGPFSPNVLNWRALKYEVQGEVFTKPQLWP
In words: Ability of resins to bind endogenous CRP from serum (LDS gel / Western blot of supernatant and eluate). The format is binding. Set-up: from tissue; host or cells: serum. Conditions: two hours at room temperature, FIG. 1; for CRP detected in the supernatant after incubation with resin: 90 μl resin, 300 μl serum containing endogenous CRP; for binding of endogenous CRP by the resin: serum containing endogenous CRP. The method, then: Several of the sequences identified in Example 2 were synthesized at gram scale to assay their ability to bind CRP. 90 μl of resin of ligands eSFAZZ (SEQ ID NO: 3), hGYIGL (SEQ ID NO: 8), vLRPWK (SEQ ID NO: 4), wZQKNH (SEQ ID NO: 7) and kZPDLH (SEQ ID NO: 6) (Z denotes 2′naphthylananine, small letters denote D amino acids, and capital letters denote L amino acids) were incubated with 300 μl of serum containing endogenous CRP, for two hours at room temperature. The supernatant was collected and the protein bound to the beads was eluted by incubation at 70° C. for ten minutes in 2×LDS sample buffer (Invitrogen). 10 μl of incubation supernatant or resin eluate was loaded per lane in an LDS gel and the proteins transferred to a nitrocellulose membrane. CRP was detected on the membrane using mouse anti-human CRP monoclonal antibody CRP-8 (Cat#C-1688, Lot# 094K4803), C=9.1 mg/ml (Sigma-Aldrich, St. Louis, Mo.) and affinity purified phosphatase labeled goat anti mouse IgG(□) human serum adsorbed (Cat#075-1802, Lot# XE084) (KPL, Gaithersburg, Md., USA).
This was confirmed by the detection of CRP in the eluates from these resins. The opposite is true for the remaining resins. […] It should be noted that all three of these ligands have a positively charged amino acid at the carboxy terminus (K or H) while none of the negative resins have the positively charged residue.

In assay [2] the target is T1, CRP. Particulars: rats undergoing acute myocardial infarction, human CRP injected; reference (24); cited from earlier work.
Assay [3] addresses T1, CRP. In words: Equilibrium capacity for binding CRP spiked into plasma or citrate buffer (unbound CRP measured by ELISA). Conditions: 80 μl resin, two hours at room temperature. The protocol: The equilibrium capacity of wZQKNH (SEQ ID NO: 7) for binding CRP was determined with CRP spiked into 200 μl of plasma or citrate buffer. 80 μl of wZQKNH resin was mixed with the spiked materials and allowed to incubate for two hours at room temperature. The supernatant was collected and CRP remaining in the supernatant (unbound fraction) was measured by ELISA. The apparent dissociation constant (the reciprocal of the association constant) for CRP bound from buffer was 12.8×10^−9 M whereas the apparent dissociation constant for CRP bound from plasma was 370×10^−9M, indicating a level of interference in plasma, possibly arising from CRP associating with other plasma proteins which may alter its dissociation constant.
On the technique in general: An ELISA detects its analyte on a solid surface through an enzyme-linked reagent.

Assay [4] addresses Human CRP (C-reactive protein) (human) (UniProt P02741). In words: Equilibrium binding of CRP spiked into plasma to 80 ul wZQKNH resin, 2 h at room temperature; unbound CRP measured by ELISA; apparent KD.
Assay [5] has the same target. The experiment in a line: Equilibrium binding of CRP spiked into citrate buffer to 80 ul wZQKNH resin, 2 h at room temperature; unbound CRP measured by ELISA; apparent KD.

Consider “Lys-Nal-Pro-Asp-Leu-His ([dK][2Nal]PDLH) [kZPDLH, hexamer peptide ligand on Toyopearl resin; Z denotes 2′naphthylalanine]”, for which, in the assay with CRP [1], the “CRP detected in the supernatant after incubation with resin” value (“CRP detected in the supernatant” for short) was “No CRP was detected” and the “binding of endogenous CRP by the resin” value is “appear to bind endogenous CRP”.

Take `C[N+](C)(C)CCOP(=O)([O-])OCCCCCCOP(=O)([O-])OCC[N+](C)(C)C` [1,6-bis(phosphocholine)-hexane]: on CRP [2], the “increase in infarct size and cardiac dysfunction produced by human CRP” value is listed as “abrogate”.

In the case of “Trp-Nal-Gln-Lys-Asn-His ([dW][2Nal]QKNH) [wZQKNH, hexamer peptide ligand on Toyopearl resin; Z denotes 2′naphthylalanine]”, the Kd with CRP [3] (CRP spiked into citrate buffer, read-out: apparent dissociation constant for CRP bound from buffer) was 12.8 nM. Also, the Kd with CRP [3] (CRP spiked into plasma, read-out: apparent dissociation constant for CRP bound from plasma) was 370 nM. In addition, in the assay with CRP [1], the “CRP detected in the supernatant” value was “No CRP was detected” and the “binding of endogenous CRP by the resin” value was “appear to bind endogenous CRP”.

On to “VLRPWK [hexamer peptide ligand on Toyopearl resin]”, for which, in the assay with CRP [1], the “CRP detected in the supernatant” value is “No CRP was detected” and the “binding of endogenous CRP by the resin” value is on record as “appear to bind endogenous CRP”.

Regarding wZQKNH (SEQ ID NO: 7) (peptide), the Kd in assay [4] is 370 nM; in assay [5] it was 12.8 nM.
